T1: synthetic purified T1A peptide
T1 chain: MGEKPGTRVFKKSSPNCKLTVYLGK

B1: MKK4 (purified) (protein)
chain: MAAPSPSGGGGSGGGSGSGTPGPVGSPAPGHPAVSSMQGKRKALKLNFANPPFKSTARFTLNPNPTGVQNPHIERLRTHSIESSGKLKISPEQHWDFTAEDLKDLGEIGRGAYGSVNKMVHKPSGQIMAVKRIRSTVDEKEQKQLLMDLDVVMRSSDCPYIVQFYGALFREGDCWICMELMSTSFDKFYKYVYSVLDDVIPEEILGKITLATVKALNHLKENLKIIHRDIKPSNILLDRSGNIKLCDFGISGQLVDSIAKTRDAGCRPYMAPERIDPSASRQGYDVRSDVWSLGITLYELATGRFPYPKWNSVFDQLTQVVKGDPPQLSNSEEREFSPSFINFVNLCLTKDESKRPKYKELLKHPFILMYEERAVEVACYVCKILDQMPATPSSPMYVD

Legend:
[1] = test system: synthetic purified T1A peptide
[2] = target: T1, synthetic purified T1A peptide

Molecule | optimal T1A concentration for JNK3 phosphorylation by MKK7, against full-length arrestin-3 [1] | JNK3 phosphorylation by MKK4 as a function of T1A concentration (in vitro kinase assay, purified proteins) [2] | optimal T1A concentration for JNK3 phosphorylation by MKK4, against full-length arrestin-3 [2]
MKK7 (purified) | in both cases optimal T1A concentrations were ˜10-times lower than those of full-length arrestin-3 |  | 
B1 |  | the optimal concentration of T1A for promoting JNK3 phosphorylation by MKK4 is lower than for MKK7-JNK3 module | in both cases optimal T1A concentrations were ˜10-times lower than those of full-length arrestin-3

From patent US20180236026
